# Assay results taken from US20220098306A1 (published 2022).
# Positions count from the first letter of the chain named.
# T1: cynomolgus B7H3
# T1 chain: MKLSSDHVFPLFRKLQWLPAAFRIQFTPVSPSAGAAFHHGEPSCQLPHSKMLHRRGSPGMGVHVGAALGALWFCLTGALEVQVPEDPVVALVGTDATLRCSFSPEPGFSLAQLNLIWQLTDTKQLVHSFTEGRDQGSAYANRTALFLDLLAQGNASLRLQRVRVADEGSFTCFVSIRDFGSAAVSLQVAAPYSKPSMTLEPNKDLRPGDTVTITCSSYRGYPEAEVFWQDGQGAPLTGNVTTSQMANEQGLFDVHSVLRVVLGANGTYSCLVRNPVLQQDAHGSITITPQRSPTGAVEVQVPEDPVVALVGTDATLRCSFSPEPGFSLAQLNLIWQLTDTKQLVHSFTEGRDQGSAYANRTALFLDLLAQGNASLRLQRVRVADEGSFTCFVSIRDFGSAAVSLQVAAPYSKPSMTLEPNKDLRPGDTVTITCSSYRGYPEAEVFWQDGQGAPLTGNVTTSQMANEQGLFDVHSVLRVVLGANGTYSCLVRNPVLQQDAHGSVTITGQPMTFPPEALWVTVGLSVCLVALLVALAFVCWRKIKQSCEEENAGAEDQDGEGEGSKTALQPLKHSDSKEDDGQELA
# T2: B7H3 (antigen of the affinity statements) (human, UniProt Q5ZPR3 29-466)
# T2 chain: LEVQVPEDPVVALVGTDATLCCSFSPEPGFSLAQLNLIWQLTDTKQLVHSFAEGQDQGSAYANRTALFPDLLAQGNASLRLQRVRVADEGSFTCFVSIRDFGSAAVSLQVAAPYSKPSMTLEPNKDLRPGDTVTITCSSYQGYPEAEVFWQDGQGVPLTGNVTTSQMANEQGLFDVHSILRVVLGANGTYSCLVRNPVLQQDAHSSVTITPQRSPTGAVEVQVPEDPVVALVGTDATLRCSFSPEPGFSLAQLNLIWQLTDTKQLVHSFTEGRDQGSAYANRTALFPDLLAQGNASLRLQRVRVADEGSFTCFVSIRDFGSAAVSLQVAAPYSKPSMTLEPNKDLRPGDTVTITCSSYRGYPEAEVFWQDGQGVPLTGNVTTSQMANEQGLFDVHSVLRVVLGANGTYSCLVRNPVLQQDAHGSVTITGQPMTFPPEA
# B1: XENP35153 (bispecific antibody)
# heavy: EVQLLESGGGLVQPGGSLRLSCAVSGFSLSSYGVIWVRQAPGKGLEYVSWVSSGGSTNYASSVKGRFTISRDTSKNTVYLQMNSLRAEDTAVYFCARGATNSGTDIWGPGTLVTVSSASTKGPSVFPLAPSSKSTSGGTAALGCLVKDYFPEPVTVSWNSGALTSGVHTFPAVLQSSGLYSLSSVVTVPSSSLGTQTYICNVNHKPSDTKVDKKVEPKSCDKTHTCPPCPAPPVAGPSVFLFPPKPKDTLMISRTPEVTCVVVDVKHEDPEVKFNWYVDGVEVHNAKTKPREEEYNSTYRVVSVLTVLHQDWLNGKEYKCKVSNKALPAPIEKTISKAKGQPREPQVYTLPPSREEMTKNQVSLTCDVSGFYPSDIAVEWESDGQPENNYKTTPPVLDSDGSFFLYSKLTVDKSRWEQGDVFSCSVLHEALHSHYTQKSLSLSPGK
# scFv-Fc: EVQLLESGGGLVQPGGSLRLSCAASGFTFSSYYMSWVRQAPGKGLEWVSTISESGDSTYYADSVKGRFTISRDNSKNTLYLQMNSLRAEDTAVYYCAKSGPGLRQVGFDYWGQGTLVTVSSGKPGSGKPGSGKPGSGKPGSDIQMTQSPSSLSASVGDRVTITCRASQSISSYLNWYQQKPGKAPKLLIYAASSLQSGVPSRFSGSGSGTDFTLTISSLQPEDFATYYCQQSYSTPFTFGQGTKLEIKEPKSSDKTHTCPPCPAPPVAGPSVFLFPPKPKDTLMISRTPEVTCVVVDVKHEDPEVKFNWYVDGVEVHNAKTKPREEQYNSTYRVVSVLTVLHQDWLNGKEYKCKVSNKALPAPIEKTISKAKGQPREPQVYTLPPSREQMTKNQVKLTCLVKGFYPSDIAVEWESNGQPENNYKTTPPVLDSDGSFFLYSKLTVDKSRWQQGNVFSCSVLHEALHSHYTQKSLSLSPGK
# light: DIVMTQSPSSLSASVGDRVTITCRASQSINSWLSWYQQKPGKPPKLLIYGASNLASGVPSRFKGSGSGTDFTLTISSLQPEDFATYYCQNNYGIIAAGATFGGGTKVEIKRTVAAPSVFIFPPSDEQLKSGTASVVCLLNNFYPREAKVQWKVDNALQSGNSQESVTEQDSKDSTYSLSSTLTLSKADYEKHKVYACEVTHQGLSSPVTKSFNRGEC
# B2: XENP34398 (bispecific antibody)
# heavy 1: EVQLLESGGGLVQPGGSLRLSCAASGFTFSSYYMSWVRQAPGKGLEWVSTISESGDSTYYADSVKGRFTISRDNSKNTLYLQMNSLRAEDTAVYYCAKSGPGLRQVGFDYWGQGTLVTVSSASTKGPSVFPLAPSSKSTSGGTAALGCLVKDYFPEPVTVSWNSGALTSGVHTFPAVLQSSGLYSLSSVVTVPSSSLGTQTYICNVNHKPSDTKVDKKVEPKSCDKTHTCPPCPAPPVAGPSVFLFPPKPKDTLMISRTPEVTCVVVDVKHEDPEVKFNWYVDGVEVHNAKTKPREEEYNSTYRVVSVLTVLHQDWLNGKEYKCKVSNKALPAPIEKTISKAKGQPREPQVYTLPPSREEMTKNQVSLTCDVSGFYPSDIAVEWESDGQPENNYKTTPPVLDSDGSFFLYSKLTVDKSRWEQGDVFSCSVLHEALHSHYTQKSLSLSPGK
# heavy 2: QVQLVQSGAEVKKPGASVKVSCKASGYIFTNNYMHWVRQAPGQGLEWMGIISPSVGRTAYAQKFQGRVTMTRDTSTSTVYMELSSLRSEDTAVYYCARGGGSSPRLDYWGQGTLVTVSSASTKGPSVFPLAPSSKSTSGGTAALGCLVKDYFPEPVTVSWNSGALTSGVHTFPAVLQSSGLYSLSSVVTVPSSSLGTQTYICNVNHKPSNTKVDKKVEPKSCGKPGSGKPGSQVQLVQSGAEVKKPGASVKVSCKASGYIFTNNYMHWVRQAPGQGLEWMGIISPSVGRTAYAQKFQGRVTMTRDTSTSTVYMELSSLRSEDTAVYYCARGGGSSPRLDYWGQGTLVTVSSASTKGPSVFPLAPSSKSTSGGTAALGCLVKDYFPEPVTVSWNSGALTSGVHTFPAVLQSSGLYSLSSVVTVPSSSLGTQTYICNVNHKPSNTKVDKKVEPKSCDKTHTCPPCPAPPVAGPSVFLFPPKPKDTLMISRTPEVTCVVVDVKHEDPEVKFNWYVDGVEVHNAKTKPREEQYNSTYRVVSVLTVLHQDWLNGKEYKCKVSNKALPAPIEKTISKAKGQPREPQVYTLPPSREQMTKNQVKLTCLVKGFYPSDIAVEWESNGQPENNYKTTPPVLDSDGSFFLYSKLTVDKSRWQQGNVFSCSVLHEALHSHYTQKSLSLSPGK
# light: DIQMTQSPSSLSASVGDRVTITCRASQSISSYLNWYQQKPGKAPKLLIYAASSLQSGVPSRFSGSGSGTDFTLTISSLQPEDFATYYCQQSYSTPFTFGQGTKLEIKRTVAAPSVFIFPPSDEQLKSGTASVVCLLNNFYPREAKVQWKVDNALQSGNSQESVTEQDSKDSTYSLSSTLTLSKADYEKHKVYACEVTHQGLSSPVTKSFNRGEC
# B3: XENP34732 (bispecific antibody)
# heavy: EVQLLESGGGLVQPGGSLRLSCAASGFTFSNYYMAWVRQAPGKGLEWVSSISTGGGSTYYRDSVKGRFTISRDNSKSTLYLQMNSLRAEDTAVYYCTTDLSAIAATPFAYWGQGTLVTVSSASTKGPSVFPLAPSSKSTSGGTAALGCLVKDYFPEPVTVSWNSGALTSGVHTFPAVLQSSGLYSLSSVVTVPSSSLGTQTYICNVNHKPSDTKVDKKVEPKSCDKTHTCPPCPAPPVAGPSVFLFPPKPKDTLMISRTPEVTCVVVDVKHEDPEVKFNWYVDGVEVHNAKTKPREEEYNSTYRVVSVLTVLHQDWLNGKEYKCKVSNKALPAPIEKTISKAKGQPREPQVYTLPPSREEMTKNQVSLTCDVSGFYPSDIAVEWESDGQPENNYKTTPPVLDSDGSFFLYSKLTVDKSRWEQGDVFSCSVLHEALHSHYTQKSLSLSPGK
# scFv-Fc: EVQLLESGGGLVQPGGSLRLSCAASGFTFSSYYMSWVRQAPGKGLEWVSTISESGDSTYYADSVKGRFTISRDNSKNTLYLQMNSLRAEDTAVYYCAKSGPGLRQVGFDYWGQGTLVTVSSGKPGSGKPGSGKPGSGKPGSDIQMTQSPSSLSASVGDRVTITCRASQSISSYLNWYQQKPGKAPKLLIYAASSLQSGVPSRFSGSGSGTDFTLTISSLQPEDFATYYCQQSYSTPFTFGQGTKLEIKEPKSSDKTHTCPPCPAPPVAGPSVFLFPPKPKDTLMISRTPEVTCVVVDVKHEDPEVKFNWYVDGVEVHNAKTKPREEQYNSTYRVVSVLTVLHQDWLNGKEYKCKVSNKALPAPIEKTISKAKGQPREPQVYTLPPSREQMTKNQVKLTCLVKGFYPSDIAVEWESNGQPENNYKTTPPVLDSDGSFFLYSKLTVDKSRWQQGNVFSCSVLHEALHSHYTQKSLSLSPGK
# light: DIQMTQSPSSLSASVGDRVTITCRASQNIYTSLAWYQQKPGKAPKLLIYNAHSLQTGIPSRFSGSGSGADFTLTISSLQPEDFATYFCQQYYSGLTFGSGTKLEIKRTVAAPSVFIFPPSDEQLKSGTASVVCLLNNFYPREAKVQWKVDNALQSGNSQESVTEQDSKDSTYSLSSTLTLSKADYEKHKVYACEVTHQGLSSPVTKSFNRGEC
# B4: 2E4A3_H1.3_1A7_L1 (antibody, V domains shown)
# VH: QVQLVQSGAEVKKPGASVKVSCKASGYIFTNHYMHWVRQAPGQGLEWMGIISPSAGSTDYAQKFQGRVTMTRDTSTSTVYMELSSLRSEDTAVYYCARGGGSSPRLDYWGQGTLVTVSS
# VL: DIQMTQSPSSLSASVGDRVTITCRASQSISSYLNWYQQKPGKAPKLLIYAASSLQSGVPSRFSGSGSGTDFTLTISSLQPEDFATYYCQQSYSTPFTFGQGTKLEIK
# B5: 2E4A3_H1.22_1A7_L1 (antibody, V domains shown)
# VH: B4 VH with H32N, A55V, S57R, D59A
# VL: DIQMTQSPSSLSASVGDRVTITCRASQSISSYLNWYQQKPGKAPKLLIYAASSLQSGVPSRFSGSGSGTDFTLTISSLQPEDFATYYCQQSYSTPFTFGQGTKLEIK
# B6: 2E4A3_H1.22_L1 (antibody, V domains shown)
# VH: B4 VH with H32N, A55V, S57R, D59A
# VL: not shown
# B7: 6A1_H1L1 (antibody, V domains shown)
# VH: EVQLLESGGGLVQPGGSLRLSCAASGFTFSNYYMAWVRQAPGKGLEWVSSISTGGGSTYYRDSVKGRFTISRDNSKSTLYLQMNSLRAEDTAVYYCTTDLSAIAATPFAYWGQGTLVTVSS
# VL: DIQMTQSPSSLSASVGDRVTITCRASQNIYTSLAWYQQKPGKAPKLLIYNAHSLQTGIPSRFSGSGSGADFTLTISSLQPEDFATYFCQQYYSGLTFGSGTKLEIK
# B8: 3C4_H1_L1.1 (antibody, V domains shown)
# VH: EVQLLESGGGLVQPGGSLRLSCAVSGFSLSSYGVIWVRQAPGKGLEYVSWVSSGGSTNYASSVKGRFTISRDTSKNTVYLQMNSLRAEDTAVYFCARGATNSGTDIWGPGTLVTVSS
# VL: DIVMTQSPSSLSASVGDRVTITCRASQSINSWLSWYQQKPGKPPKLLIYGASNLASGVPSRFKGSGSGTDFTLTISSLQPEDFATYYCQNNYGIIAAGATFGGGTKVEIK
# B9: 38E2_H2_L1.1 (antibody, V domains shown)
# VH: EVQLVESGGGLVKPGGSLRLSCAASGFSFSVGYYMCWVRQAPGKGLEWVSCIYVGSGSSGSTYYASVKGRFTISSDTAKTSVYLQMNSLRAEDTAVYFCARTAGSDWRLDLWGQGTLVTVSS
# VL: DIVMTQSPSSLSASVGDRVTITCRASQSIANELSWYQQKPGKPPKLLIYRASTLTSGVPSRFKGSGSGTDFTLTISSLQPEDFATYYCQSTYNGRAIGFGGGTKVEIK
# B10: H1.14_L1 (XENP31398) (antibody, V domains shown)
# VH: EVQLLESGGGLVQPGGSLRLSCAASGFTFSSYYMSWVRQAPGKGLEWVSTISGSGDSTYYADSVKGRFTISRDNSKNTLYLQMNSLRAEDTAVYYCAKSGPGLRQVGFDYWGQGTLVTVSS
# VL: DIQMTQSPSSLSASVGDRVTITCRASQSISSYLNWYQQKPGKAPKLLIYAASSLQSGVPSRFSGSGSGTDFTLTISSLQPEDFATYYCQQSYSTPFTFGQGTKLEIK
# Target: T3, CD28 (antigen of the affinity determinations) (human, UniProt P10747 19-152)
# Test: not given
row,Kd [nM],Binder
1,360,B1
2,63,B2
3,370,B3

# Target: T1, cynomolgus B7H3
# Test: not given
row,Kd [nM],Binder
1,7,B4
2,4.3,B5
3,5.3,B6
4,4.2,B7
5,27.2,B8
6,1.4,B9

# Target: T2, B7H3 (antigen of the affinity …)
# Test: not given
row,Kd [nM],Binder
1,12,B4
2,7.6,B5
3,6.1,B6
4,8.1,B7
5,29.7,B8
6,0.5,B9

# Target: T3, CD28 (antigen of the affinity …)
# Test: -; Fab, 2+1 CLC
row,Kd [nM],Binder
1,62.8,B10

# Target: T2, B7H3 (antigen of the affinity …)
# Test: -; monovalent KD
row,Kd [nM],Binder
1,0.5,B1
2,7.6,B2
3,8.1,B3
